Assays:
[1] = target: BBMV proteins (receptor binding sites) in brush border membrane vesicles from fall armyworm (FAW; Spodoptera frugiperda) larval midgut; experiment: heterologous competition: unlabeled Cry1Ab against 0.5 nM 125I Cry1Be on FAW BBMVs; reference is homologous Cry1Be
[2] = target: BBMV proteins (receptor binding sites) in brush border membrane vesicles from European corn borer (ECB; Ostrinia nubilalis) larval midgut; experiment: homologous competition: unlabeled Cry1Ab against 0.5 nM 125I Cry1Ab on ECB BBMVs
[3] = target: BBMV proteins (receptor binding sites) in brush border membrane vesicles from fall armyworm (FAW; Spodoptera frugiperda) larval midgut; experiment: heterologous competition: unlabeled Cry1Ab against 0.5 nM 125I Cry1Be on FAW BBMVs
[4] = target: BBMV proteins (receptor binding sites) in brush border membrane vesicles from fall armyworm (FAW; Spodoptera frugiperda) larval midgut; experiment: homologous competition: unlabeled Cry1Ab against 0.5 nM 125I Cry1Ab on FAW BBMVs

Cry1Ab insecticidal protein (purified truncated Cry toxin) (from UniProt P0A370 29-612) (ligand)
fold lower affinity to compete for the binding of Cry1Be [1]: 500 fold | IC50 [2]: 0.5 nM | IC50 [3]: 1000 nM | IC50 [4]: 0.3 nM

From US20120324606A1
